Results taken from the supplement of paper PMC10065799, “High-throughput profiling of sequence recognition by tyrosine kinases and SH2 domains using bacterial peptide display” (eLife, 2023).

The sequences below were run against SHP2-C SH2 (assay: SH2 binding enrichment of the phosphorylated peptide, bacterial display (enrichment ratio); higher = better substrate or ligand; peptides without Tyr show the background).
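Further: peptide library displayed on the E. coli surface as eCPX fusions, selected cells deep-sequenced, score is each peptide's frequency after selection divided by its frequency in the input.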

Question: For KNNDGNIDYAE [MCFD2_Y135_Y135N], which SH2 binding enrichment is on record?
Answer: 0.792

Question: Which SH2 binding enrichment does the source give for DPKFHYDNTAG [KDR_Y1214] here?
Answer: 0.646

Question: How did the SH2 binding enrichment turn out when NHFKICNLCAE [PTEN_Y68_Y68C_YF] was run?
Answer: 1.4

Question: PDGREYIYVDP [PDGFRA_Y572_H570R] was tested. Which SH2 binding enrichment did it give?
Answer: 0.781

Question: For GMIQAYSSSQR [DES_Y5_S2I], which SH2 binding enrichment is on record?
Answer: 0.712

Question: Which SH2 binding enrichment does the source give for EGNERYEGFCV [GRIA3_Y451_YF] here?
Answer: 0.66

Question: MENFIYESMQY [CYP19A1_Y361_R365Q] was tested. Which SH2 binding enrichment did it give?
Answer: 0.954

Question: With PSDLLYIPDIQ [ITGA2B_Y845_L847P] as the sequence, how does the SH2 binding enrichment read?
Answer: 0.288

Question: Which SH2 binding enrichment does the source give for ITKQEYDEAGP [ACTA1_Y364] here?
Answer: 0.786

Question: GYCSWYRGWAP [TIMP3_Y195] was tested. Which SH2 binding enrichment did it give?
Answer: 0.715

Question: Which SH2 binding enrichment does the source give for KKFVPYYDLFM [IPO5_Y530_E525K] here?
Answer: 1.14

Question: IRRWVYPLTPE [EIF2B5_Y319] was tested. Which SH2 binding enrichment did it give?
Answer: 0.716

Question: How did the SH2 binding enrichment turn out when REVVNYVQKRS [RMI1_Y450_N455S] was run?
Answer: 0.511

Question: With GAVGNYSRGLA [MGMT_Y158_G160R] as the sequence, how does the SH2 binding enrichment read?
Answer: 0.632

Question: For ATFRGYDSDNP [MMUT_Y146_H143Y_YF], which SH2 binding enrichment is on record?
Answer: 0.718

Question: For QYKGKYLAKHN [CASK_Y712_D710G], which SH2 binding enrichment is on record?
Answer: 0.792

Question: With FLGKGYSDGGC [MC4R_Y35_S30F] as the sequence, how does the SH2 binding enrichment read?
Answer: 0.832

Question: Which SH2 binding enrichment does the source give for RAKLFYQEVPA [METTL11B_Y76] here?
Answer: 0.789

Question: With VREIRCQGGNR [VWF_Y1570_Y1570C] as the sequence, how does the SH2 binding enrichment read?
Answer: 0.591

Question: Which SH2 binding enrichment does the source give for KRFAFYRDSPR [FOXE3_Y108_E103K] here?
Answer: 0.974

Question: With TAGFSYEKWEI [TEC_Y360] as the sequence, how does the SH2 binding enrichment read?
Answer: 0.701

Question: EEEFEYMNRRR [ERBB3_Y1199_D1194E_YF] was tested. Which SH2 binding enrichment did it give?
Answer: 0.671

Question: How did the SH2 binding enrichment turn out when DPLLTYWFPPK [LMNA_Y481_R482W] was run?
Answer: 0.797

Question: Which SH2 binding enrichment does the source give for IKGNMYYENSY [EGFR_Y112_R108K] here?
Answer: 0.713

Question: For VLNHAYENLTR [SYNE2_Y3255_D3253H], which SH2 binding enrichment is on record?
Answer: 1.89

Question: For NLNGKYYKPRA [ANGPTL3_Y417_N418Y], which SH2 binding enrichment is on record?
Answer: 0.974

Question: Which SH2 binding enrichment does the source give for RSAGKDDVYLI [MECP2_Y120_Y120D] here?
Answer: 0.478

Question: SVVVPYEPPEV [TP53_Y220] was tested. Which SH2 binding enrichment did it give?
Answer: 1.11

Question: AEARMYGVLPW [PLP1_Y207_D203E] was tested. Which SH2 binding enrichment did it give?
Answer: 0.871

Question: Which SH2 binding enrichment does the source give for ADKSAYLMGPN [MYH7_Y386_L390P] here?
Answer: 0.729

Question: VPHECYAKVFD [ALB_Y394_D389V] was tested. Which SH2 binding enrichment did it give?
Answer: 1.55

Question: Which SH2 binding enrichment does the source give for VKANTYEKFWL [GATM_Y100_P105L_YF] here?
Answer: 0.807

Question: Which SH2 binding enrichment does the source give for FSLPAYMDRRD [COX4I1_Y38] here?
Answer: 0.72

The sequences below were run against Grb2 SH2 (UniProt P62993) in the same assay as above.
Chain of Grb2 SH2 (P62993 whole entry, looked up): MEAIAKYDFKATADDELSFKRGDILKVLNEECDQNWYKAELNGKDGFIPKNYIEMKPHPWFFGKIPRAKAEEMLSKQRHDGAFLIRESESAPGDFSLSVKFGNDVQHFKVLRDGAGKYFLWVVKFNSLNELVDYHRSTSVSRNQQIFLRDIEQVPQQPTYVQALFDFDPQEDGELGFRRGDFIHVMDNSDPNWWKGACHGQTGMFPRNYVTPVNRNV

Question: KNNDGNIDYAE [MCFD2_Y135_Y135N] was tested. Which SH2 binding enrichment did it give?
Answer: 1.05

Question: DPKFHYDNTAG [KDR_Y1214] was tested. Which SH2 binding enrichment did it give?
Answer: 0.989

Question: With NHFKICNLCAE [PTEN_Y68_Y68C_YF] as the sequence, how does the SH2 binding enrichment read?
Answer: 1.33

Question: Which SH2 binding enrichment does the source give for PDGREYIYVDP [PDGFRA_Y572_H570R] here?
Answer: 0.605

Question: For GMIQAYSSSQR [DES_Y5_S2I], which SH2 binding enrichment is on record?
Answer: 0.872

Question: With EGNERYEGFCV [GRIA3_Y451_YF] as the sequence, how does the SH2 binding enrichment read?
Answer: 0.74

Question: Which SH2 binding enrichment does the source give for MENFIYESMQY [CYP19A1_Y361_R365Q] here?
Answer: 0.914

Question: PSDLLYIPDIQ [ITGA2B_Y845_L847P] was tested. Which SH2 binding enrichment did it give?
Answer: 0.847

Question: ITKQEYDEAGP [ACTA1_Y364] was tested. Which SH2 binding enrichment did it give?
Answer: 0.869

Question: How did the SH2 binding enrichment turn out when GYCSWYRGWAP [TIMP3_Y195] was run?
Answer: 0.655

Question: For KKFVPYYDLFM [IPO5_Y530_E525K], which SH2 binding enrichment is on record?
Answer: 1.6

Question: How did the SH2 binding enrichment turn out when IRRWVYPLTPE [EIF2B5_Y319] was run?
Answer: 0.811

Question: REVVNYVQKRS [RMI1_Y450_N455S] was tested. Which SH2 binding enrichment did it give?
Answer: 0.826

Question: With GAVGNYSRGLA [MGMT_Y158_G160R] as the sequence, how does the SH2 binding enrichment read?
Answer: 0.933

Question: Which SH2 binding enrichment does the source give for ATFRGYDSDNP [MMUT_Y146_H143Y_YF] here?
Answer: 1.01

Question: Which SH2 binding enrichment does the source give for QYKGKYLAKHN [CASK_Y712_D710G] here?
Answer: 1.42

Question: Which SH2 binding enrichment does the source give for FLGKGYSDGGC [MC4R_Y35_S30F] here?
Answer: 1.1

Question: How did the SH2 binding enrichment turn out when RAKLFYQEVPA [METTL11B_Y76] was run?
Answer: 0.651

Question: For VREIRCQGGNR [VWF_Y1570_Y1570C], which SH2 binding enrichment is on record?
Answer: 0.963

Question: With KRFAFYRDSPR [FOXE3_Y108_E103K] as the sequence, how does the SH2 binding enrichment read?
Answer: 1.14

Question: Which SH2 binding enrichment does the source give for TAGFSYEKWEI [TEC_Y360] here?
Answer: 0.706

Question: EEEFEYMNRRR [ERBB3_Y1199_D1194E_YF] was tested. Which SH2 binding enrichment did it give?
Answer: 1.37

Question: DPLLTYWFPPK [LMNA_Y481_R482W] was tested. Which SH2 binding enrichment did it give?
Answer: 1.19

Question: How did the SH2 binding enrichment turn out when IKGNMYYENSY [EGFR_Y112_R108K] was run?
Answer: 6.83

Question: How did the SH2 binding enrichment turn out when VLNHAYENLTR [SYNE2_Y3255_D3253H] was run?
Answer: 26.7

Question: For NLNGKYYKPRA [ANGPTL3_Y417_N418Y], which SH2 binding enrichment is on record?
Answer: 1.3

Question: RSAGKDDVYLI [MECP2_Y120_Y120D] was tested. Which SH2 binding enrichment did it give?
Answer: 0.854

Question: SVVVPYEPPEV [TP53_Y220] was tested. Which SH2 binding enrichment did it give?
Answer: 1.01

Question: For AEARMYGVLPW [PLP1_Y207_D203E], which SH2 binding enrichment is on record?
Answer: 0.769

Question: For ADKSAYLMGPN [MYH7_Y386_L390P], which SH2 binding enrichment is on record?
Answer: 0.766

Question: Which SH2 binding enrichment does the source give for VPHECYAKVFD [ALB_Y394_D389V] here?
Answer: 0.887

Question: VKANTYEKFWL [GATM_Y100_P105L_YF] was tested. Which SH2 binding enrichment did it give?
Answer: 0.819

Question: With FSLPAYMDRRD [COX4I1_Y38] as the sequence, how does the SH2 binding enrichment read?
Answer: 0.772
